# In patent US20210388087A1 (Chugai, published 2021):
# Positions count from the first letter of the chain named.
# B1: H183/L072 VL E27aG (antibody, name in Kabat numbering, V domains shown)
# VH: QVQLVESGGGLVQPGRSLRLSCAASGFTFSNAWMHWVRQAPGKGLEWVAQIKDKGNAYAAYYAPSVKGRFTISRDDSKNSIYLQMNSLKTEDTAVYYCHYVHYASASTVLPAFGVDAWGQGTTVTVSS
# VL: DIVMTQSPLSLPVTPGEPASISCQASQGLVHMNRNTYLHWYQQKPGQAPRLLIYKVSNRFPGVPDRFSGSGSGTDFTLKISRVEAEDVGVYYCAQGTSVPFTFGQGTKLEIK
# notes: Dual-Ig
# B2: H183/L072 VL E27aL (antibody, name in Kabat numbering, V domains shown)
# VH: B1 VH
# VL: B1 VL with G28L
# notes: Dual-Ig
# B3: H183/L072 VL E27aM (antibody, name in Kabat numbering, V domains shown)
# VH: B1 VH
# VL: B1 VL with G28M
# notes: Dual-Ig
# B4: H183/L072 VL F96L (antibody, name in Kabat numbering, V domains shown)
# VH: B1 VH
# VL: B1 VL with G28E, F101L
# notes: Dual-Ig
# B5: H183/L072 VL F96E (antibody, name in Kabat numbering, V domains shown)
# VH: B1 VH
# VL: B1 VL with G28E, F101E
# notes: Dual-Ig
# B6: H183/L072 VL F55R (antibody, name in Kabat numbering, V domains shown)
# VH: B1 VH
# VL: B1 VL with G28E, F60R
# notes: Dual-Ig
# B7: H183/L072 VL F55Q (antibody, name in Kabat numbering, V domains shown)
# VH: B1 VH
# VL: B1 VL with G28E, F60Q
# notes: Dual-Ig
# B8: H183/L072 VL F55K (antibody, name in Kabat numbering, V domains shown)
# VH: B1 VH
# VL: B1 VL with G28E, F60K
# notes: Dual-Ig
# B9: H183/L072 VL F96I (antibody, name in Kabat numbering, V domains shown)
# VH: B1 VH
# VL: B1 VL with G28E, F101I
# notes: Dual-Ig
# B10: H183/L072 VL E27aQ (antibody, name in Kabat numbering, V domains shown)
# VH: B1 VH
# VL: B1 VL with G28Q
# notes: Dual-Ig
# B11: H183/L072 VL F55D (antibody, name in Kabat numbering, V domains shown)
# VH: B1 VH
# VL: B1 VL with G28E, F60D
# notes: Dual-Ig
# B12: H183/L072 VL E27aW (antibody, name in Kabat numbering, V domains shown)
# VH: B1 VH
# VL: B1 VL with G28W
# notes: Dual-Ig
# B13: H183/L072 VL F96H (antibody, name in Kabat numbering, V domains shown)
# VH: B1 VH
# VL: B1 VL with G28E, F101H
# notes: Dual-Ig
# B14: H183/L072 VL F96T (antibody, name in Kabat numbering, V domains shown)
# VH: B1 VH
# VL: B1 VL with G28E, F101T
# notes: Dual-Ig
# B15: H183/L072 VL F96P (antibody, name in Kabat numbering, V domains shown)
# VH: B1 VH
# VL: B1 VL with G28E, F101P
# notes: Dual-Ig
# B16: H183/L072 VL F55W (antibody, name in Kabat numbering, V domains shown)
# VH: B1 VH
# VL: B1 VL with G28E, F60W
# notes: Dual-Ig
# B17: H183/L072 VL F96V (antibody, name in Kabat numbering, V domains shown)
# VH: B1 VH
# VL: B1 VL with G28E, F101V
# notes: Dual-Ig
# B18: H183/L072 VL E27aY (antibody, name in Kabat numbering, V domains shown)
# VH: B1 VH
# VL: B1 VL with G28Y
# notes: Dual-Ig
# B19: H183/L072 VL E27aK (antibody, name in Kabat numbering, V domains shown)
# VH: B1 VH
# VL: B1 VL with G28K
# notes: Dual-Ig
# B20: H183/L072 VL F55S (antibody, name in Kabat numbering, V domains shown)
# VH: B1 VH
# VL: B1 VL with G28E, F60S
# notes: Dual-Ig
# B21: H183/L072 VL F55L (antibody, name in Kabat numbering, V domains shown)
# VH: B1 VH
# VL: B1 VL with G28E, F60L
# notes: Dual-Ig
# B22: H183/L072 VL F55T (antibody, name in Kabat numbering, V domains shown)
# VH: B1 VH
# VL: B1 VL with G28E, F60T
# notes: Dual-Ig
# B23: H183/L072 VL F96Q (antibody, name in Kabat numbering, V domains shown)
# VH: B1 VH
# VL: B1 VL with G28E, F101Q
# notes: Dual-Ig
# B24: H183/L072 VL E27aP (antibody, name in Kabat numbering, V domains shown)
# VH: B1 VH
# VL: B1 VL with G28P
# notes: Dual-Ig
# B25: H183/L072 VL F96R (antibody, name in Kabat numbering, V domains shown)
# VH: B1 VH
# VL: B1 VL with G28E, F101R
# notes: Dual-Ig
# B26: H183/L072 VL F55I (antibody, name in Kabat numbering, V domains shown)
# VH: B1 VH
# VL: B1 VL with G28E, F60I
# notes: Dual-Ig
# B27: H183/L072 VL F96D (antibody, name in Kabat numbering, V domains shown)
# VH: B1 VH
# VL: B1 VL with G28E, F101D
# notes: Dual-Ig
# B28: H183/L072 VL F55P (antibody, name in Kabat numbering, V domains shown)
# VH: B1 VH
# VL: B1 VL with G28E, F60P
# notes: Dual-Ig
# B29: H183/L072 VL E27aN (antibody, name in Kabat numbering, V domains shown)
# VH: B1 VH
# VL: B1 VL with G28N
# notes: Dual-Ig
# B30: H183/L072 VL F55M (antibody, name in Kabat numbering, V domains shown)
# VH: B1 VH
# VL: B1 VL with G28E, F60M
# notes: Dual-Ig
# B31: H183/L072 VL F55V (antibody, name in Kabat numbering, V domains shown)
# VH: B1 VH
# VL: B1 VL with G28E, F60V
# notes: Dual-Ig
# B32: H183/L072 VL F96N (antibody, name in Kabat numbering, V domains shown)
# VH: B1 VH
# VL: B1 VL with G28E, F101N
# notes: Dual-Ig
# B33: H183/L072 VL F55E (antibody, name in Kabat numbering, V domains shown)
# VH: B1 VH
# VL: B1 VL with G28E, F60E
# notes: Dual-Ig
# B34: H183/L072 VL F96K (antibody, name in Kabat numbering, V domains shown)
# VH: B1 VH
# VL: B1 VL with G28E, F101K
# notes: Dual-Ig
# B35: H183/L072 VL E27aS (antibody, name in Kabat numbering, V domains shown)
# VH: B1 VH
# VL: B1 VL with G28S
# notes: Dual-Ig
# B36: H183/L072 VL F55N (antibody, name in Kabat numbering, V domains shown)
# VH: B1 VH
# VL: B1 VL with G28E, F60N
# notes: Dual-Ig
# B37: H183/L072 VL F55G (antibody, name in Kabat numbering, V domains shown)
# VH: B1 VH
# VL: B1 VL with G28E, F60G
# notes: Dual-Ig
# B38: H183/L072 VL E27aI (antibody, name in Kabat numbering, V domains shown)
# VH: B1 VH
# VL: B1 VL with G28I
# notes: Dual-Ig
# B39: H183/L072 VL E27aR (antibody, name in Kabat numbering, V domains shown)
# VH: B1 VH
# VL: B1 VL with G28R
# notes: Dual-Ig
# B40: H183/L072 VL F55H (antibody, name in Kabat numbering, V domains shown)
# VH: B1 VH
# VL: B1 VL with G28E, F60H
# notes: Dual-Ig
# B41: H183/L072 VL F96M (antibody, name in Kabat numbering, V domains shown)
# VH: B1 VH
# VL: B1 VL with G28E, F101M
# notes: Dual-Ig
# B42: H183/L072 VL F96A (antibody, name in Kabat numbering, V domains shown)
# VH: B1 VH
# VL: B1 VL with G28E, F101A
# notes: Dual-Ig
# B43: H183/L072 VL F96G (antibody, name in Kabat numbering, V domains shown)
# VH: B1 VH
# VL: B1 VL with G28E, F101G
# notes: Dual-Ig
# B44: H183/L072 VL E27aT (antibody, name in Kabat numbering, V domains shown)
# VH: B1 VH
# VL: B1 VL with G28T
# notes: Dual-Ig
# B45: H183/L072 VL F96S (antibody, name in Kabat numbering, V domains shown)
# VH: B1 VH
# VL: B1 VL with G28E, F101S
# notes: Dual-Ig
# B46: H183/L072 VL E27aH (antibody, name in Kabat numbering, V domains shown)
# VH: B1 VH
# VL: B1 VL with G28H
# notes: Dual-Ig
# Target: T1, Human CD137 ECD (human)
# T1 construct: entry includes C-terminal His-tag and biotin acceptor peptide; also called human CD137 extracellular domain; 4-1BB
# T1 sequence (chain, as listed by the source limits assumed): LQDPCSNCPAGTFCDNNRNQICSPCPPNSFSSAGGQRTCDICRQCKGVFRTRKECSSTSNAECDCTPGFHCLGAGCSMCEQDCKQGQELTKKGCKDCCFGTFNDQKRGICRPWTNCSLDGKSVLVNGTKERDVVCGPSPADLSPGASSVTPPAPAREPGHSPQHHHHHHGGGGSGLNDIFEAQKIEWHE
# Test: Biacore SPR, vs parent H183/L072
row,fold change of affinity [fold],Binder
1,1,B1
2,0.9,B2
3,0.9,B3
4,0,B4
5,0,B5
6,0,B6
7,0,B7
8,0,B8
9,0,B9
10,1.1,B10
11,0,B11
12,1,B12
13,0,B13
14,0,B14
15,0,B15
16,0.2,B16
17,0,B17
18,1.1,B18
19,0.9,B19
20,0,B20
21,0.2,B21
22,0,B22
23,0,B23

row,fold change of affinity [fold],Binder
1,0.8,B24
2,0,B25
3,0,B26
4,0,B27
5,0,B28
6,0.9,B29
7,0.2,B30
8,0,B31
9,0,B32
10,0,B33
11,0,B34
12,0.6,B35
13,0,B36
14,0,B37
15,0.8,B38
16,0.9,B39
17,0,B40
18,0,B41
19,0,B42
20,0,B43
21,0.5,B44
22,0,B45
23,1.1,B46
